Measured values: patent US20210284724A1 (I MAB BIOPHARMA US, published 2021)
Positions count from the first letter of the chain named. Values belong to the binder of their own block, whether it stands above or below them.

Key:
human CXCL13 [1] = target: T1, human CXCL13 (human, UniProt O43927 23-109); assay: cell-based blocking ELISA, CXCL13 to CHO-K1-CXCR5
T1 construct: also called huCXCL13; rhCXCL13
T1 sequence (looked up): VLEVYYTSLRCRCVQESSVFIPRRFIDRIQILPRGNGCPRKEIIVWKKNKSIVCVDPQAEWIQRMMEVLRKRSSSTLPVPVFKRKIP
Protocol: Splenocytes were electro-fused with mouse myeloma cell line SP2/0 cells and plated into 96-well culture plate. The hybridoma supernatants were tested by ELISA binding assay for anti-human CXCL13 binders. Supernatants of positive binding clones were screened for function in blocking of human CXCL13 binding to its […] CXCR5 by Cell-based receptor blocking ELISA assay. Briefly, 5×10⁴ CHO-K1-CXCR5 cells were plated in 96-well plate with 100 μl of culture medium and incubated at 37° C. overnight. Cells were fixed with 100 μl of 2% PFA at RT for 1 hr after washing with PBS for 1 time. Blocking was done with 1% BSA in PBST for 1 hr at RT. Supernatants were diluted with PBS and pre-incubated with equal volume of 0.3 μg/ml human CXCL13 for 30 min at RT. 100 μl of antibody-antigen complex was then transferred into each cell wells for 30 min at RT. The samples were washed with 1×PBST for 3 times and 100 μl of 3 μg/ml of human Mab5261 antibody was add into each well to capture human CXCL13 and anti-human Fc-HRP was used to indirectly detect human CXCL13 when it bound to CHO-K1-CXCR5 cells. […] Reading was done at […].
Those antibodies were purified from hybridoma supernatants by binding with Protein G column and characterized by ELISA binding assays and cell-based blocking ELISA assays. […] 11/20 clones bound to both human CXCL13 and cynomolgus CXCL13 appeared to completely block human CXCL13 to human CXCR5. 11 blockers bound to both huCXCL13 and cynoCXCL13 were produced as chimeric human IgG1 antibodies for further Characterization.

cynomolgus CXCL13 = target: T2, cynomolgus CXCL13 (cynomolgus, UniProt H6WS58 23-109); assay: ELISA, coated antigen
T2 construct: also called cynoCXCL13; Cyno CXCL13
T2 sequence: T1 sequence (looked up) with S8H, L32S, I52V, M65I, V68M, R72K, L77P

mouse CXCL13 = target: T3, mouse CXCL13 (mouse, UniProt O55038 22-109); assay: ELISA, coated antigen
T3 construct: also called rmCXCL13
T3 sequence (looked up): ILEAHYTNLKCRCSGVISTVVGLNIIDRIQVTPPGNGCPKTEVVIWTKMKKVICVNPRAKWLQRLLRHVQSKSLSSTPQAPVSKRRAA

human CXCL13 [2] = target: T1, human CXCL13; assay: ELISA, coated antigen

B1: 411A11E9 (antibody, V domains shown)
VH: EVQLVESGGGLVQPGGSLKLSCVVSGFTFSDYYMAWVRQTPTKGLEWVASINYDGGDTYYRDSVKGRFTVSRNNAKSSLFLQMDSLRSEDTATYYCKTEEDYDGSYVMDAWGQGASVIVSS
VL: DIQMTQSPSFLSASVGDRVTISCKASQNINKELTWYQQKLGKAPKRLIYNTNILQTGIPSRFSGSGSNTDYTLTISSLQPEDFATYFCLQQSSLYTFGAGTKLELK
notes: Hybridoma mAb
IC50 (human CXCL13 [1]): 0.793 µg/mL
EC50 (cynomolgus CXCL13): 0.252 µg/mL
binding result (mouse CXCL13): no binding
EC50 (human CXCL13 [2]): 0.0201 µg/mL

B3: 130D6G1 (antibody, V domains shown)
VH: QVQLQQSGAELMKPGASVKISCKSTGYTFSTYWIEWVKQRPGHGLEWIGEILPGSDSTNSNEKFEGKATFTADTSSNTAYMQLSSLTSEDSAVYYCARDYYGFYFDYWGQGTTLTVSS
VL: DIVMTQSHKFMSTSVGDRVNITCKASQDVSTAVAWYQQKPGQSPKLLIYSTSYRYTGVPDRFTGSGSGTDFTFTISNVQAEDLAVYYCQQHYTTPRTFGGGTKLEIK
notes: Hybridoma mAb
IC50 (human CXCL13 [1]): 1.23 µg/mL
binding result (cynomolgus CXCL13): no binding
binding result (mouse CXCL13): no binding
EC50 (human CXCL13 [2]): 0.0192 µg/mL

B4: 168A2D4 (antibody, V domains shown)
VH: EVQLQQSGPELVKPGASVKISCKASGNTLTDYYMNWVKQSHGKSLEWIGDINPNNGDIIYNQKFKGKATLTVAKSSSTAYMELRSLTSEDSAVYYCAIYYDPYYHAMDYWGQGTSVTVSS
VL: DIVMTQSHKFMSTSVRDRVSITCKASQDVSTGVAWYQQKPGQSPKLLIYSASYRYTGVPDRFTGSGSGTDFTFTISSVQAEDLAVYYCQQQYSVPLTFGAGTKLELK
notes: Hybridoma mAb
IC50 (human CXCL13 [1]): 0.29 µg/mL
binding result (cynomolgus CXCL13): no binding
binding result (mouse CXCL13): no binding
EC50 (human CXCL13 [2]): 0.134 µg/mL

B5: 175E3B10 (antibody, V domains shown)
VH: QVTLKESGPGILQPSQTLSLTCSFSEFSLSVFGMGVGWIRQPSGKGLEWLAHIWWDDEKYYNPALKSRLTISKDTSKNQVFLKIANVDTADTATYFCARIDGYYDFDYWGQGTTLTVSS
VL: DVLMTQTPLSLPVSLGTQASIFCRSSHSIVQDNGNTYLQWYLQKPGQSPKLLIYKVSNRFSGVPDRFSGSGSGTDFTLKISRVEAEDLGVYYCFQGSYVPYTFGGGTKLEIK
notes: Hybridoma mAb
IC50 (human CXCL13 [1]): 1.42 µg/mL
binding result (cynomolgus CXCL13): no binding
binding result (mouse CXCL13): no binding
EC50 (human CXCL13 [2]): 0.0326 µg/mL

B7: 408E3F3 (antibody, V domains shown)
VH: HVTLRESGPGVLQPSKTLSLTCSFSGFSLSTSAMVVSWIRQSSGMSLEWLAAIDWEGDKYYNPSLESRLTVSRDISDTQVFLRITSVDVADTATYYCAVMSSADSHSVLDAWGQGVSVTVSS
VL: DIKMTQSPSFLSASVGDRVTINCKASQNIHNYLNWYQQKFGEAPRLLIYNTNNLQTGIPSRFSGSGSGTDFTLTISSLQPEDVATYFCLQHSSSLTFGSGTKLEIN
notes: Hybridoma mAb
IC50 (human CXCL13 [1]): 1.49 µg/mL
EC50 (cynomolgus CXCL13): 0.0706 µg/mL
binding result (mouse CXCL13): no binding
EC50 (human CXCL13 [2]): 0.0237 µg/mL

B8: 177D2G10 (antibody, V domains shown)
VH: QIALKESGPGILQSSQTLSLTCSFSGFSLSTSGMHVGWFRQPSGKTLEWLAHIYWDDDKRYNPSLKSRLTISKDTSRNQVFLNLTNVDTADTATYYCARRGGDYDYDEGFDYWGQGTTLTVSS
VL: DVVMTQTPLSLPVSLGDQASISCRSSQSLVHSNGFTYLHWYLQKPGQSPKLLIYKVSNRFSGVPDRFSGSGSGTEFTLRISRVEAEDLGVYFCSQSTHVPYTFGGGTKLEIK
notes: Hybridoma mAb
IC50 (human CXCL13 [1]): ~912 µg/mL
binding result (cynomolgus CXCL13): no binding
binding result (mouse CXCL13): no binding
EC50 (human CXCL13 [2]): 0.0544 µg/mL

B9: 178E2B3 (antibody, V domains shown)
VH: QVQLQQSGAELVRPGTSVKVSCKASGYAFTNHLIEWVKQRPGQGLEWIGVINPGSGGTKYNEKFKGKATVTADKSSSTVYMQLNSLTSEDSAVYFCARSSDGYYEEDYFDYWGQGTTLTVSS
VL: QIVLTQSPAIMSASPGEKVTMTCSASSSVNYMQWYQQKSGTSPKRWIYDTSELASGVPDRFSGSGSGTSYSLTISSMEAEDVATYYCQQWSSDPITFGAGTKLELK
notes: Hybridoma mAb
IC50 (human CXCL13 [1]): 0.974 µg/mL
binding result (cynomolgus CXCL13): no binding
binding result (mouse CXCL13): no binding
EC50 (human CXCL13 [2]): 0.0153 µg/mL

B14: 396A5A1 (antibody, V domains shown)
VH: QVTLKESGPGILQPSQTLSLTCSFSGFSLSTSGMGIGWIRQPSGKGLEWLAHIWWDDIKRYNPALKSRLTVSKDTSTSQVFLNIASVDTADIATYFCARSTTVVAFDYWGQGTTLTVSS
VL: DILMTQSPSSLTVTAGEKVTMSCKSSQSLLNSGNQKNYLTWYQQKPGQPPKLLIYWASTRESGVPDRFTGTGSGTDFTLTISSVQAEDLAIYYCQNDYDYPTFGGGTKLEIK
notes: Hybridoma mAb
IC50 (human CXCL13 [1]): 1 µg/mL
binding result (cynomolgus CXCL13): no binding
binding result (mouse CXCL13): no binding
EC50 (human CXCL13 [2]): 0.0135 µg/mL

B16: 156H3H7 (antibody, V domains shown)
VH: EVQLQQSGPELVKPGASVKISCKASGYTFTDYYMNWVRQSHGKSLEWIGDINPNNGDTTYNQKFKGKATLTVDTSSSTVYMELRSLTSEDSAVYYCAGYDEDHYAMDYWGQGTSVTVSS
VL: B3 VL with I2Y, N20S, A32G, K39N, T51A, Y53H, N77S, H91Y, R96W
notes: Hybridoma mAb
IC50 (human CXCL13 [1]): 4.59 µg/mL
binding result (cynomolgus CXCL13): no binding
binding result (mouse CXCL13): no binding
EC50 (human CXCL13 [2]): 0.0134 µg/mL

More lines, now with the values ahead:

IC50 (human CXCL13 [1]): 0.533 µg/mL
binding result (cynomolgus CXCL13): no binding
binding result (mouse CXCL13): no binding
EC50 (human CXCL13 [2]): 0.0393 µg/mL
B2: 119H10D6 (antibody, V domains shown)
VH: B3 VH with S24A, S30N, D56E, N59D, S60Y, E65K, G66D, T74I, F103Y
VL: B3 VL with N20S, A34V, T51A, T63S, N77S, T93S, T94S
notes: Hybridoma mAb

IC50 (human CXCL13 [1]): 4.85 µg/mL
binding result (cynomolgus CXCL13): no binding
binding result (mouse CXCL13): no binding
EC50 (human CXCL13 [2]): 0.0272 µg/mL
B6: 184H10B5 (antibody, V domains shown)
VH: B5 VH with F96Y
VL: B5 VL with F22S, K50Q
notes: Hybridoma mAb

IC50 (human CXCL13 [1]): 11.7 µg/mL
binding result (cynomolgus CXCL13): no binding
EC50 (mouse CXCL13): 0.538 µg/mL
EC50 (human CXCL13 [2]): 2.27 µg/mL
B10: 409G9C2 (antibody, V domains shown)
VH: EVQLQQSGPGLVKPSGTLSLTCAVSGGSITSSYWWTWVRQPPGKGLEWIGEIYHSGRPNYNPSLKSRATISVDKSRNQFSLNLTSVTAADTAVYYCAKTAAVSYWYFDLWGRGTLVTVSS
VL: DIKMNQSPSSMSASLGDRVTITCQASQDIGNDLIWFQQKPGKSPRPLIYYASNLANGVPSRFSGRRSESNYSLTISSLESEDMADYHCLQFKQYPFTFGAGTKLELK
notes: Hybridoma mAb

IC50 (human CXCL13 [1]): 2.09 µg/mL
binding result (cynomolgus CXCL13): no binding
binding result (mouse CXCL13): no binding
EC50 (human CXCL13 [2]): 0.0218 µg/mL
B11: 168D6F2 (antibody, V domains shown)
VH: QVQLQQPGAELVKPGASVKLSCQASGYTFTSYWMHWVKQRPGRGLEWIGGIDPDSGATKDNEKFKTKATLTVDKPSRTAYIQLSSLTSEDSAVFYCARGSTVVAPGDYFAMDYWGQGTSVTVSS
VL: DIVLTPSPTSLAVSLGQRATMSCRASESVDNYGISFMHWYQQKPGQPPKLLIYRASNLDSGIPARFSASGSRTDFTLTINPVETDDVATYYCQQSNKDPWTFGGGTKLEIK
notes: Hybridoma mAb

IC50 (human CXCL13 [1]): 0.698 µg/mL
EC50 (cynomolgus CXCL13): 0.0711 µg/mL
binding result (mouse CXCL13): no binding
EC50 (human CXCL13 [2]): 0.0132 µg/mL
B12: 415A3D1F4 (antibody, V domains shown)
VH: EVKLLESGGGLVQAGGSMRLSCGAFGFTVTDFYINWIRQPAGKAPEWLGFMRNKANGYTTEYNPSVKGRFTISRNNTQNMPYLQMNTLRTEDTAIYYCARSRYNADDYYVGVMDVWGQGASVTVSS
VL: DIQMTQFPASLSASLGETVSIECLASEDIYNNLAWYQQKPGKSPQLLIYYTNSLQDGVPSRFSGTGSGTQYSLKINSLESEDAATYFCLQDSEYPWTFGGGTKLKLK
notes: Hybridoma mAb

IC50 (human CXCL13 [1]): 3.24 µg/mL
binding result (cynomolgus CXCL13): no binding
binding result (mouse CXCL13): no binding
EC50 (human CXCL13 [2]): 0.0138 µg/mL
B13: 345G1B4 (antibody, V domains shown)
VH: B14 VH with G33N, I36V, I58V, V71I, T77S, N83K, I92T, F96Y, V103L
VL: B14 VL with L3V, T71S, I91V, D99S
notes: Hybridoma mAb

IC50 (human CXCL13 [1]): 2.22 µg/mL
EC50 (cynomolgus CXCL13): 0.196 µg/mL
binding result (mouse CXCL13): no binding
EC50 (human CXCL13 [2]): 0.0385 µg/mL
B15: 19H7E10 (antibody, V domains shown)
VH: EVQLQQSGPELVKPGASVKISCQASGYAFSDYYMNWVKQSHGKRLEWIGDINPNNDGTTYNQKFKDKATLTVDKSSSTAYMDLRSLTSEDSAVYYCARLSWSFFAMDYWGQGTSVTVSS
VL: DIVMTQSHKFMSTSVGDRVSITCKASQDVSSGVAWYQQKPGQSPKVLIYSASHRHTGVPDRFTASGSGTDFTFTISSVQAEDLAVYYCQQYYNTPWTFGGGTKLEIK
notes: Hybridoma mAb

IC50 (human CXCL13 [1]): 0.703 µg/mL
binding result (cynomolgus CXCL13): no binding
binding result (mouse CXCL13): no binding
EC50 (human CXCL13 [2]): 0.0223 µg/mL
B17: 181B11G12 (antibody, V domains shown)
VH: EVKLVESEGGLVQPGSSMKLSCTASGFTFSDYYMAWVRQVPEKGLEWVANINYDGSDTYYLDSLKSRFIISRDNAKNILYLQMSSLKSEDTATYYCVRDVAYDDSYAMDYWGQGTSVTVSS
VL: DIQMTQSPSSLSASLGGKVTITCKASQDINKYIAWYQHKPGKGPRLLIHYTSTLQPGIPSRFSGSGSGRDYSFSISNLEPEDIATYYCLQYDSLYTFGGGTKLEIK
notes: Hybridoma mAb
